Columns and labels:
[1] = target: FimH^wt (FimH adhesin of E. coli K12) (Escherichia coli K12) (UniProt P08191); experiment: ELISA, mAb824 on FimH^wt fimbriae, without αmm
[2] = target: FimH^FocH (Escherichia coli K12; Escherichia coli) (UniProt P08191); experiment: ELISA, mAb824 on FimH^FocH fimbriae, without αmm
[3] = target: FimH^wt (FimH adhesin of E. coli K12) (Escherichia coli K12) (UniProt P08191); experiment: cell-based or functional assay
[4] = target: FimH^FocH (Escherichia coli K12; Escherichia coli) (UniProt P08191); experiment: cell-based or functional assay
[5] = target: FimH^wt (FimH adhesin of E. coli K12) (Escherichia coli K12) (UniProt P08191); experiment: ELISA, mAb824 on FimH^wt fimbriae, with 1% αmm
[6] = target: FimH^FocH (Escherichia coli K12; Escherichia coli) (UniProt P08191); experiment: ELISA, mAb824 on FimH^FocH fimbriae, with 1% αmm
yeast mannan = experiment: FimH-dependent bacterial adhesion to yeast mannan (Example 7); format: cell-based; conditions: 1% mannose
Description: FimH-dependent bacterial adhesion was analyzed as described previously. Briefly, Immulon 4HBX microtiter plates (Thermo Electron Corp.) were coated with 20 μg/mL of yeast mannan and plates were quenched with 0.2% BSA in PBS. Bacterial suspensions in PBS (OD540=2) were added to each well in a volume of 100 μl and incubated for 1 h at 37° C. After extensive washing, bound bacteria were stained with 0.1% (vol/vol) crystal violet for 20 min at room temperature and were washed several times with water. Then 100 μl of 50% (vol/vol) ethanol was added to each well, and the absorbance at a wavelength of 600 nm was measured. For inhibition, bacterial binding was tested in the presence of 1% mannose.

fimbrial FimH = experiment: mAb21 ELISA on fimbriae after αmm / Fab824 pre-treatment; format: binding, Escherichia coli; conditions: FimH^wt pre-treated with PBS only
Text: Bound antibodies were detected with a 1:5,000 diluted HRP-conjugated goat anti-mouse Fc antibody (Sigma-Aldrich). […] Binding of the latter antibody was detected using 1:5,000 diluted HRP-conjugated streptavidin (Invitrogen).

[7] = target: horseradish peroxidase (HRP) (horseradish) (UniProt P00433); experiment: time course of soluble HRP on fimbriae pre-treated with mAb824
asialofetuin = target: T1, asialofetuin (UniProt P12763 19-359, oligosaccharides with terminal galactose (beta1-3)); experiment: adhesion of bacteria expressing the FmlH variant to surface-coated asialofetuin, crystal violet, absorbance 600 nm
T1 construct: also called asialated fetuin
T1 sequence (looked up): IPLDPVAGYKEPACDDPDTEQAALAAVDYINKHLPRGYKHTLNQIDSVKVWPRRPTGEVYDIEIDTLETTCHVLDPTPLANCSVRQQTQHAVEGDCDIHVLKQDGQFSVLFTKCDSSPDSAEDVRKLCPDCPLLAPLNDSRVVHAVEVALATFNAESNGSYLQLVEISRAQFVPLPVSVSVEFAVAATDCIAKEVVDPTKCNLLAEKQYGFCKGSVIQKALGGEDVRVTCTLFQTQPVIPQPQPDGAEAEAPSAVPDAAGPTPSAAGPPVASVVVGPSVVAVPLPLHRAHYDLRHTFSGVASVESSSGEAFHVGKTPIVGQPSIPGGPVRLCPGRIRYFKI
Description: Briefly, Immulon 4HBX microtiter plates (Thermo Electron Corp.) were coated with 20 μg/mL of asialofetuin (Sigma-Aldrich) and plates were quenched with 0.2% BSA in PBS. Bacterial suspensions in PBS (OD540=2) were added to each well in a volume of 100 μl and plates were spun for 2 min at 750×g. After extensive washing, bound bacteria were stained with 0.1% (vol/vol) crystal violet for 20 min at room temperature and were washed several times with water. Then 100 μl of 50% (vol/vol) ethanol was added to each well, and the absorbance at a wavelength of 600 nm was measured. For inhibition, bacterial binding was tested in the presence of 1% galactose (Sigma).
Briefly, Immulon 4HBX microtiter plates (ThermoFisher Scientific) were coated with 20 μg/mL of asialofetuin (Sigma-Aldrich) and plates were quenched with 0.2% BSA in PBS. Bacterial suspensions in PBS (OD540=2) were added to each well in a volume of 100 μl and plates were spun for 2 min at 750×g. After extensive washing, bound bacteria were stained with 0.1% (vol/vol) crystal violet for 20 min at room temperature and were washed several times with water. Then 100 μl of 50% (vol/vol) ethanol was added to each well, and the absorbance at a wavelength of 600 nm was measured. For inhibition, bacterial binding was tested in the presence of 1% galactose (Sigma).

Chain of horseradish peroxidase (HRP) (horseradish) (P00433 31-338): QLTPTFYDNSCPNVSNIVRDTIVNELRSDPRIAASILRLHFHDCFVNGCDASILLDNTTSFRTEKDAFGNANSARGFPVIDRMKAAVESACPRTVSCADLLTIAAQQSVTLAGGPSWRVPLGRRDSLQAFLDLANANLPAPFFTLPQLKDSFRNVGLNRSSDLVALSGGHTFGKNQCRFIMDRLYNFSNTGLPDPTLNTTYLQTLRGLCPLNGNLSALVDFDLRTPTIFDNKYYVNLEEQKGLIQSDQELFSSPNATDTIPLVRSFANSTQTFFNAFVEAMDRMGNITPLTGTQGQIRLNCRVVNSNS

Molecule: mAb824 (antibody)
- EC50 (read off the curve) [1]: 0.02 nM
- EC50 (read off the curve) [2]: 0.02 nM
- RBC agglutination: time (in min) upon which noticeable aggregation of RBC was observed [3]: > 60 min
- RBC agglutination: time (in min) upon which noticeable aggregation of RBC was observed [4]: > 60 min
- EC50 (read off the curve) [5]: 0.02 nM
- EC50 (read off the curve) [6]: 0.02 nM

Molecule: α-methyl-D-mannopyranoside [αmm]
- inhibition of bacterial adhesion to yeast mannan-coated surface (yeast mannan): > 95%
- αmm concentration at plateau of mAb21 binding (fimbrial FimH): 0.1-1.0 % αmm

Molecule: FimH^FocH (from UniProt P08191 22-300)
- fold decrease in the rate of binding with mAb824 against untreated [7]: > 10 fold

B1: FmIH^wt (full-length wild-type FmlH adhesin) (other, Escherichia coli CFT073)
chain: FSCNVDGGSSIGAGTTSVYVNLDPVIQPGQNLVVDLSQHISCWNDYGGWYDTDHINLVQGSAFAGSLQSYKGSLYWNNVTYPFPLTTNTNVLDIGDKTPMPLPLKLYITPVGAAGGVVIKAGEVIARIHMYKIATLGSGNPRNFTWNIISNNSVVMPTGGCTVDSRNVTVDLPDFPGSAEIPLGVYCSSEQKLSFYLSGATTDSSRQVFANTAPDATKASGVGVTLMRNGKILATGENVSLGTVNKSKVPLGLSATYGQTGNKVSAGTVQSVIGVTFIYE
notes: domain: pilin domain; Expressed on bacteria in the type 1 fimbrial background
- binding result (asialofetuin): no binding
